Assay results: patent publication US20100144645A1, “COMPOSITIONS AND METHODS FOR ENHANCING […] POTENCY OF […]-COMPOUNDS, A[…] ADVERSE SIDE EFFECTS, AND […] ABUSE” (SHIRE LLC, priority 2006, published 2010)
Residues, ends and D or L forms follow the SMILES beside them. *: point of attachment. X1 = COc1ccc2c3c1OC1C(O*)=CCC4[C@@H](C2)N(C)CC[C@]314

Legend:
[1] = Oral bioavailability of hydrocodone conjugates (plasma hydrocodone plus hydromorphone); conditions: for bioavailabiltty (% HC) oral AUC / bioavailabiltty (% HC) oral Cmax: rats, relative to hydrocodone; for Oral:IN Index AUC: ratio of oral to IN AUC (% HC); for Oral:IN Index Cmax: ratio of oral to IN Cmax (% HC)
[2] = stability 90 C., 20 min (V, BP, TW, BS) of hydrocodone conjugates; conditions: for stability 90 C., 20 min BP: BP (abbreviation not defined); for stability 90 C., 20 min BS: BS (abbreviation not defined); for stability 90 C., 20 min TW: TW (abbreviation not defined); for stability 90 C., 20 min V: V (abbreviation not defined)
[3] = Intranasal bioavailability of hydrocodone conjugates; conditions: rats, relative to hydrocodone
[4] = Oral bioavailability of oxycodone conjugates (plasma oxycodone plus oxymorphone); conditions: rats, n = 4 animals, analysis by LC-MS, OXY = 100

Compound	bioavailabiltty (% HC) oral AUC [1] [% HC]	bioavailabiltty (% HC) oral Cmax [1] [% HC]	Oral:IN Index AUC [1]	Oral:IN Index Cmax [1]	stability 90 C., 20 min BP [2]	stability 90 C., 20 min BS [2]	stability 90 C., 20 min TW [2]	stability 90 C., 20 min V [2]	bioavailabiltty (% HC) IN AUC [3] [% HC]	bioavailabiltty (% HC) IN Cmax [3] [% HC]	Oral (% AUC) [4] [% AUC]
COc1ccc2c3c1OC1C(OC(=O)[C@H](Cc4ccccc4)NC(=O)CNC(=O)CNC(=O)[C@H](CCC(=O)O)NC(=O)[C@@H](N)CCC(=O)O)=CCC4[C@@H](C2)N(C)CC[C@]314 (stereo partly shown) [Glu2-Gly2-Phe-HC] (H-EEGGF-X1)	110	112	1.24	1.15	100	100	100	0	89	97	
CC[C@H](C)[C@H](NC(=O)[C@H](Cc1ccccc1)NC(=O)[C@H](Cc1ccccc1)NC(=O)[C@H](CCC(=O)O)NC(=O)[C@@H](N)CCC(=O)O)C(=O)OC1=CCC2[C@H]3Cc4ccc(OC)c5c4[C@@]2(CCN3C)C1O5 (stereo partly shown) [Glu2-Phe2-Ile-HC] (H-EEFFI-X1)	96	129	1.41	1.70	100	100	33	0	68	76	
COc1ccc2c3c1OC1C(OC(=O)[C@H](Cc4ccccc4)NC(=O)[C@H](Cc4ccccc4)NC(=O)[C@H](Cc4ccccc4)NC(=O)[C@H](CCC(=O)O)NC(=O)[C@@H](N)CCC(=O)O)=CCC4[C@@H](C2)N(C)CC[C@]314 (stereo partly shown) [Glu2-Phe3-HC, Glu2-Phe3-Hydrocodone] (H-EEFFF-X1)	83	89	3.07	1.89	100	84	57	3	27	47	
CC[C@H](C)[C@H](NC(=O)[C@H](CCC(=O)O)NC(=O)[C@@H](N)CCC(=O)O)C(=O)OC1=CCC2[C@H]3Cc4ccc(OC)c5c4[C@@]2(CCN3C)C1O5 (stereo partly drawn) [Glu-Glu-Ile-HC]	83	112	1.60	1.90	94	100	26	0	52	59	
CC[C@H](C)[C@H](NC(=O)[C@H](CCC(=O)O)NC(=O)[C@@H](N)CCC(=O)O)C(=O)OC1=CCC2(O)[C@H]3Cc4ccc(OC)c5c4[C@@]2(CCN3C)C1O5 (stereo partly drawn) [Glu-Glu-Ile-OC]											179
COc1ccc2c3c1OC1C(OC(=O)[C@H](CC(C)C)NC(=O)[C@H](CCC(=O)O)NC(=O)[C@@H](N)CCC(=O)O)=CCC4(O)[C@@H](C2)N(C)CC[C@]314 (stereo partly drawn) [Glu-Glu-Leu-OC]											80
COc1ccc2c3c1OC1C(OC(=O)[C@H](Cc4ccccc4)NC(=O)[C@H](CCC(=O)O)NC(=O)[C@@H](N)CCC(=O)O)=CCC4(O)[C@@H](C2)N(C)CC[C@]314 (stereo partly drawn) [Glu-Glu-Phe-OC]											49
CC[C@H](C)[C@H](NC(=O)[C@H](CCC(=O)O)NC(=O)[C@H](CCC(=O)O)NC(=O)CNC(=O)CN)C(=O)OC1=CCC2[C@H]3Cc4ccc(OC)c5c4[C@@]2(CCN3C)C1O5 (stereo partly shown) [Gly2-Glu2-Ile-HC] (H-GGEEI-X1)	96	119	1.45	1.55	74	100	11	0	66	77	
CC[C@H](C)[C@H](NC(=O)[C@@H]1CCCN1C(=O)[C@@H]1CCCN1C(=O)CNC(=O)CN)C(=O)OC1=CCC2[C@H]3Cc4ccc(OC)c5c4[C@@]2(CCN3C)C1O5 (stereo partly shown) [Gly2-Pro2-Ile-HC] (H-GGPPI-X1)	94	121	2.14	2.16	73	100	70	0	44	56	
COc1ccc2c3c1OC1C(OC(=O)[C@H](Cc4ccccc4)NC(=O)[C@@H]4CCCN4C(=O)[C@@H](N)CC(C)C)=CCC4[C@@H](C2)N(C)CC[C@]314 (stereo partly drawn) [Leu-Pro-Phe-HC]	106	125	1.28	1.24	100	100	100	2	83	101	
CC[C@H](C)[C@H](NC(=O)[C@H](CC(=O)O)NC(=O)[C@H](CC(=O)O)NC(=O)[C@H](CCCCN)NC(=O)[C@@H](N)CCCCN)C(=O)OC1=CCC2[C@H]3Cc4ccc(OC)c5c4[C@@]2(CCN3C)C1O5 (stereo partly shown) [Lys2-Asp2-Ile-HC] (H-KKDDI-X1)	90	121	2.31	2.16	64	100	0	0	39	56	
CC[C@H](C)[C@H](NC(=O)[C@@H]1CCCN1C(=O)[C@@H]1CCCN1C(=O)[C@H](CCCCN)NC(=O)[C@@H](N)CCCCN)C(=O)OC1=CCC2[C@H]3Cc4ccc(OC)c5c4[C@@]2(CCN3C)C1O5 (stereo partly shown) [Lys2-Pro2-Ile-HC] (H-KKPPI-X1)	80	76	1.18	0.81	72	100	66	0	68	94	
CC[C@H](C)[C@H](NC(=O)[C@H](CCCCN)NC(=O)[C@@H](N)CCCCN)C(=O)OC1=CCC2[C@H]3Cc4ccc(OC)c5c4[C@@]2(CCN3C)C1O5 (stereo partly drawn) [Lys-Lys-Ile-HC]	80	76	1.18	0.81	100	97	96	0	68	94	
CC[C@H](C)[C@H](NC(=O)[C@@H]1CCCN1)C(=O)N[C@H](C(=O)OC1=CCC2[C@H]3Cc4ccc(OC)c5c4[C@@]2(CCN3C)C1O5)[C@@H](C)CC (stereo partly drawn) [Pro-Ile-Ile-HC]	104	99	1.21	0.97	47	100	83	0	86	102	
CC[C@H](C)[C@H](NC(=O)[C@H](CC(C)C)NC(=O)[C@@H]1CCCN1)C(=O)OC1=CCC2[C@H]3Cc4ccc(OC)c5c4[C@@]2(CCN3C)C1O5 (stereo partly drawn) [Pro-Leu-Ile-HC]	141	172			100	100	100	0	87	101	
COc1ccc2c3c1OC1C(OC(=O)[C@H](CC(C)C)NC(=O)[C@@H]4CCCN4C(=O)[C@@H]4CCCN4)=CCC4[C@@H](C2)N(C)CC[C@]314 (stereo partly drawn) [Pro-Pro-Leu-HC]	94	108	2.04	2.25	100	100	100	2	46	48	
CC[C@H](C)[C@H](NC(=O)[C@H](Cc1ccccc1)NC(=O)[C@H](Cc1ccccc1)NC(=O)[C@H](Cc1ccc(O)cc1)NC(=O)[C@@H](N)Cc1ccc(O)cc1)C(=O)OC1=CCC2[C@H]3Cc4ccc(OC)c5c4[C@@]2(CCN3C)C1O5 (stereo partly shown) [Tyr2-Phe2-Ile-HC] (H-YYFFI-X1)	113	63	4.35	1.85	5	50	5	0	26	34	
CC[C@H](C)[C@H](NC(=O)[C@H](Cc1ccc(O)cc1)NC(=O)[C@@H](N)Cc1ccc(O)cc1)C(=O)OC1=CCC2[C@H]3Cc4ccc(OC)c5c4[C@@]2(CCN3C)C1O5 (stereo partly drawn) [Tyr-Tyr-Ile-HC]	145	234	7.25	6.88	66	100	23	0	20	34	
